In PMC5025763, “Bach2–Batf interactions control Th2-type immune response by regulating the IL-4 amplification loop” (Nature Communications, 2016):

Target: T1, Flag-tagged Bach2 protein (mouse, UniProt P97303 1-839)
T1 construct: Bach2, mouse (murine Bach2 cDNA is named in the methods of the luciferase assay); The species is stated only for the cDNA cloned into pCMV-Myc; also called WT Bach2 protein; BTB and CNC homology 1, basic leucine zipper transcription factor 2; source: cell-free protein synthesis
Assay: AlphaScreen or HTRF; Flag-tagged Bach2 mixed with biotinylated transcription factors, 26 °C for 1 h; then protein A-conjugated acceptor beads, streptavidin-coated donor beads and anti-Flag M2 antibody, 26 °C for 1 h; proteins from cell-free synthesis; intensities relative to DHFR
Conditions: partners not purified

T1 sequence (P97303 whole entry): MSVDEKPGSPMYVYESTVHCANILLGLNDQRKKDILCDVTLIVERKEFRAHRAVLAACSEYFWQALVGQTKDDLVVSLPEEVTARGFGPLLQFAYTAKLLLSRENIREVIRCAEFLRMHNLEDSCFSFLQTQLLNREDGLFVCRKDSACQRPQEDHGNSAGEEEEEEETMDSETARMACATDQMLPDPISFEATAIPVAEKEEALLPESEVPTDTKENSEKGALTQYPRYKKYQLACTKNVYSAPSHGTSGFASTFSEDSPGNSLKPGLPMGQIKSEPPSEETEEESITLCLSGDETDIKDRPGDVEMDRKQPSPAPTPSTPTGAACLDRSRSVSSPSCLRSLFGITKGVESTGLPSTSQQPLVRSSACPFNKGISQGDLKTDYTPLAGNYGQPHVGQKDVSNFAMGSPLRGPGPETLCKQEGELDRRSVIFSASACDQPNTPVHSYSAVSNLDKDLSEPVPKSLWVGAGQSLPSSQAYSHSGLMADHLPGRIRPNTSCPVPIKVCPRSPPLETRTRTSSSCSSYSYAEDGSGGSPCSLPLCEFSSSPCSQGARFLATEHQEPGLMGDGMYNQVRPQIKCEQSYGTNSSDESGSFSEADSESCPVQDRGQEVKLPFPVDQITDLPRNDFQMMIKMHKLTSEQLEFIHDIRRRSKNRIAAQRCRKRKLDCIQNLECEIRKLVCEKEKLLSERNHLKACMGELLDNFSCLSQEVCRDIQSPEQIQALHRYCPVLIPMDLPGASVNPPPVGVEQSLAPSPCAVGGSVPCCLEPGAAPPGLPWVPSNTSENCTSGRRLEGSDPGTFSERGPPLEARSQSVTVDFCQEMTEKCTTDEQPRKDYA

fold binding strength against the Batf–Bach2 interaction: ~20 fold
B1: MafK (natural protein)
chain: not shown
notes: MafK (small Maf protein); Named only in the discussion as measured in the authors' AlphaScreen system
